Data on one protein can be found in paper doi:10.1101/2024.03.06.583760 (bioRxiv, 2024).

The data set deals with the molecule itself. Description: cryo-EM 2D classification.

“And” between values parts separate entries of the source, which are not always exact repeats. Equal values may be shown once.

B1: α-latrotoxin (natural protein)
chain: EGEDLTLEEKAEICSELELQQKYVDIASNIIGDLSSLPIAGKIAGTIAAAAMTATHVASGRLDIEQTLLGCSDLPFDQIKEVLENRFNEIDRKLDSHSAALEEITKLVEKSISVVEKTRKQMNKRFDEVMKSIQDAKVSPIISKINNFARYFDTEKERIRGLKLNDYILKLEEPNGILLHFKESRTPTDDSLQAPLFSIIEEGYAVPKSIDDELAFKVLYALLYGTQTYVSVMFFLLEQYSFLANHYYEKGYLEKYDEYFNSLNNVFLDFKSSLVGTGTSNNEGLLDRVLQVLMTVKNSEFLGLEKNGVDEMLNEKINLFNKIKEEIEGKQKMTLSETPENFAQISFDKDITTPIGDWRDGREVRYAVQYASETLFSKISHWSDPVSVREKACPTLRMPVDQTRRNVLVFRKFDSSKPQLVGEITPYLSNFIDIDRDLYNAASNPDSAVGFKEFTKLNYDGANIRATFDHGRTVFHAAAKSGNDKIMFGLTFLAKSTELNQPDKKGYTPIHVAADSGNAGIVNLLIQRGVSINSKTYHFLQTPLHLAAQRGFVTTFQRLMESPEININERDKDGFTPLHYAIRGGERILEAFLNQISIDVNAKSNTGLTPFHLAIIKNDWPVASTLLGSKKVDINAVDENNITALHYAAILGYLETTKQLINLKEINANVVSSPGLLSALHYAILYKHDDVASFLMRSSNVNVNLKALGGITPLHLAVIQGRKQILSLMFDIGVNIEQKTDEKYTPLHLAAMSKYPELIQILLDQGSNFEAKTNSGATPLHLATFKGKSQAALILLNNEVNWRDTDENGQMPIHGAAMTGLLDVAQAIISIDATVVDIEDKNSDTPLNLAAQNSHIDVIKYFIDQGADINTRNKKGLAPLLAFSKKGNLDMVKYLFDKNANVYIADNDGMNFFYYAVQNGHLNIVKYAMSEKDKFEWSNTDNNRRDECPNEECAISHFAVCDAVQFDRIEIVKYFVGTLGNFAICGPLHQAARYGHLDIVKYLVEEEFLSVDGSKTDTPLCYASENGHFTVVQYLVSNGAKVNHDCGNGMTAIDKAITKNHLQVVQFLAANGVDFRRKNSRGTTPFLTAVAENALHIAEYLIREKRQDININEQNVDKDTALHLAVYYKNLQMIKLLIKYGIDVTIRNAYDKTALDIAIDAKFSNIVEYLKTKSGKFRR
For B1, the stoichiometry N – broadly, a count of units in the complex or per binding partner – is 2 and 3 and 4.
